Data set [1] has as its target Kluyveromyces lactis glucokinase (KlGlk1) (Kluyveromyces lactis) (UniProt Q6CUZ3). The data set is described as follows: SEC-MALS; size-exclusion chromatography (Superdex 200 Increase 10/300 GL) coupled to right-angle/low-angle light scattering (RALS/LALS) and refractive index, OMNISEC REVEAL; 50 mM Tris pH 7.8, 200 mM NaCl, 5 mM beta-ME. (In general: In gel filtration, larger molecules generally elute earlier.)

Substrate in data set [2]: Nc1ncnc2c1ncn2[C@@H]1O[C@H](COP(=O)(O)OP(=O)(O)OP(=O)(O)O)[C@@H](O)[C@H]1O
The experiment in a line: G6PD-coupled assay, fit over ATP range preceding substrate inhibition. In kind it is biochemical, Kluyveromyces lactis. The following applies: 0.5 mM glucose, 5 mM MgCl2, 50 mM KCl, 250 mM sucrose, 20 mM Tris-HCl pH 7.4, 37 °C, Hill coefficient 1.97 at low ATP, substrate inhibition from 0.25 mM ATP.

In general, stoichiometry N refers to the number of molecules, sites or subunits per partner or assembly. Turning to “Kluyveromyces lactis glucokinase (KlGlk1) (from UniProt Q6CUZ3 49-481) (enzyme)”, the stoichiometry N in data set [1] is 2.

B1: KlGlk1 (Kluyveromyces lactis NRRL Y-1140) (protein)
chain: SDPKLTKAVDSICDQFIVTKSKISQLTEYFIDCMEKGLEPCESDISQNKGLPMIPTFVTDKPSGQEHGVTMLAADLGGTNFRVCSVELLGNHEFKIEQEKSKIPTFFFQDDHHVTSKDLFQHMALITHQFLTKHHKDVIQDYKWKMGFTFSYPVDQTSLSSGKLIRWTKGFKIGDTVGQDVVQLFQQELNDIGLSNVHVVALTNDTTGTLLARCYASSDAARAINEPVIGCIFGTGTNGCYMEKLENIHKLDPASREELLSQGKTHMCINTEWGSFDNELNHLPTTSYDIKIDQQFSTNPGFHLFEKRVSGLYLGEILRNILLDLEKQELFDLKESVLKNNPFILTTETLSHIEIDTVENDLQDTRDALLKAADLETTFEERVLIQKLVRAISRRAAFLAAVPIAAILIKTNALNQSYHCQVEVGCDGSVVEHYPGFRSMMRHALALSPIGPEGERDVHLRISKDGSGVGAALCALHANY
notes: codon-optimized synthetic gene in pET24d, E. coli BL21 (DE3); N-terminal His-tag removed with TEV protease; dimer in solution (100 kDa apparent); crystal model residues 2-481
As usually defined, the Km is the substrate concentration at which the rate is half of its maximum. As usually defined, the kcat is the maximal rate divided by the concentration of active sites. On to B1, for which, in data set [2], the Michaelis-Menten constant (Km) came out at 150 µM and the kcat worked out at 400 s⁻¹.

The values above are taken from PMC6801647, “Crystal Structure of Kluyveromyces lactis Glucokinase (KlGlk1)” (International Journal of Molecular Sciences, 2019).
